In US20240287202A1 (XYPHOS BIOSCIENCES, published 2024):
One block for each binder: values may come before it.

B2: Fc-iNKG2D.YA (NKG2D ectodomain Y152A fused to the C-terminus of human IgG1 Fc) (Fc fusion)
chain: IEGRFLNSLFNQEVQIPLTESYCGPCPKNWICYKNNCYQFFDESKNWYESQASCMSQNASLLKVYSKEDQDLLKLVKSAHWMGLVHIPTNGSWQWEDGSILSPNLLTIIEMQKGDCALYASSFKGYIENCSTPNTYICMQRTV
notes: range 78-216; it is not tied by words to this Fc fusion; not shown: human IgG1 Fc

Legend:
[1] = molecular target: T1, mouse NKG2D (mouse, UniProt O54709 94-232, limits assumed); assay: ELISA on mouse NKG2D, absorbance against nM MicAbody
T1 construct: also called mouse wild-type NKG2D
T1 sequence (looked up): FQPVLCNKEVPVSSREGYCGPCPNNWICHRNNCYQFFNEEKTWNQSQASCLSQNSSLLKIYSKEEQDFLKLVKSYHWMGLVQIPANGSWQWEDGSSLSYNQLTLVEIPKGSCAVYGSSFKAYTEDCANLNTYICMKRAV

[2] = molecular target: T2, Fc-wtNKG2D (wild-type NKG2D ectodomain fused to the C-terminus of human IgG1 Fc) (human, UniProt P26718 78-216); assay: Octet BLI; Fc-wtNKG2D captured on AHC tips, two-fold dilution series from 50 nM
T2 construct: range 78-216; Dimeric secreted protein from Expi293 cells; also called Fc-NKG2D; not shown: human IgG1 Fc
T2 sequence: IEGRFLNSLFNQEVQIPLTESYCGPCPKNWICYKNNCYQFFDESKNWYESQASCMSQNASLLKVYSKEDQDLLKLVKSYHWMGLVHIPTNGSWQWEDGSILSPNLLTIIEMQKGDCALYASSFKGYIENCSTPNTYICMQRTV
From the text: (§1) The y-axes corresponding to binding responses were set to the same scale for all sensograms.

[3] = molecular target: B2; assay: Octet BLI; Fc-iNKG2D.YA captured on AHC tips, two-fold dilution series from 50 nM
From the text: as §1

[4] = molecular target: T3, MICB-Fc (R&D Systems) (human, UniProt Q29980 23-298, limits assumed); assay: ELISA; ligand-Fc coated, biotinylated Fc-iNKG2D.YA, streptavidin-HRP (legend: the Fc-NKG2D is titrated; axis on the sheet: nM ligand-Fc)
T3 construct: Bought; also called Ligand-Fc fusion; not shown: Fc of the bought fusion; not described
T3 sequence (looked up): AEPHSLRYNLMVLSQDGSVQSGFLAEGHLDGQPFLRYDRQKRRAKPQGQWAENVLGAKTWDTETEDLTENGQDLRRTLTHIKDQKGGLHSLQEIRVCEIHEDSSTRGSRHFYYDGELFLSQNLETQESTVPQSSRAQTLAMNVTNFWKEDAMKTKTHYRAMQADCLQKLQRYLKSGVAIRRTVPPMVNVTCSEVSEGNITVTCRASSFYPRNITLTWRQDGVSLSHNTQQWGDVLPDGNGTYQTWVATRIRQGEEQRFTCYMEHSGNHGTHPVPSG

[5] = molecular target: T4, ULBP4-Fc (R&D Systems) (human, UniProt Q8TD07 31-225, limits assumed); assay: as above
T4 construct: Bought; also called Ligand-Fc fusion; not shown: Fc of the bought fusion; not described
T4 sequence (looked up): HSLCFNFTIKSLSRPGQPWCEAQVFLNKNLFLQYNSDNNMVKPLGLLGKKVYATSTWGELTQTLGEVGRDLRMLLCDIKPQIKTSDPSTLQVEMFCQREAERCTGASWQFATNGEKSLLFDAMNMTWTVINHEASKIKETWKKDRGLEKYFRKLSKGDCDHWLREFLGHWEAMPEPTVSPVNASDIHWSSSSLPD

[6] = molecular target: T5, ULBP3-Fc (R&D Systems) (human, UniProt Q9BZM4 30-217); assay: as above
T5 construct: Bought; also called Ligand-Fc fusion; not shown: Fc of the bought fusion; not described
T5 sequence (looked up): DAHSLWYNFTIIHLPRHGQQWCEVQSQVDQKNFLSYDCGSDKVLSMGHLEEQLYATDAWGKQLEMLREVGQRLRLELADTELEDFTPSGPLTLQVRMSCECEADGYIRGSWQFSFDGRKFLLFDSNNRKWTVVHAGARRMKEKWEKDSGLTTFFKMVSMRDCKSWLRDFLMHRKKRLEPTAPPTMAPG

[7] = molecular target: T6, ULBP2-Fc (R&D Systems) (human, UniProt Q9BZM5 26-217); assay: as above
T6 construct: Bought; also called Ligand-Fc fusion; not shown: Fc of the bought fusion; not described
T6 sequence (looked up): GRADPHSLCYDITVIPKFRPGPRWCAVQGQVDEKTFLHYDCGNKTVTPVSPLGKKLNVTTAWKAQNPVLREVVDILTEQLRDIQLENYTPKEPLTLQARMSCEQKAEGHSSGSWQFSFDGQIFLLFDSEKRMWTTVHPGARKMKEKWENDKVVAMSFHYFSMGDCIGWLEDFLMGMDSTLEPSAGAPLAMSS

[8] = molecular target: T7, MICA-Fc (R&D Systems) (human, UniProt Q29983 24-308, limits assumed); assay: as above
T7 construct: Bought; also called Ligand-Fc fusion; not shown: Fc of the bought fusion; not described
T7 sequence (looked up): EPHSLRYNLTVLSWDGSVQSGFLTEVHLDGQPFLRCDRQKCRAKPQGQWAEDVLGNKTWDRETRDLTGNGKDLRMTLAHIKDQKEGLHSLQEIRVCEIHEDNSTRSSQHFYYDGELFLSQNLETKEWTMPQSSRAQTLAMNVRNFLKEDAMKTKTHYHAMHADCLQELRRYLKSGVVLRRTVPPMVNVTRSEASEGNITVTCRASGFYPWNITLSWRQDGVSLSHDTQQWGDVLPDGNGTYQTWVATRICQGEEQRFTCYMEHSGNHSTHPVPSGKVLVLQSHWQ

[9] = molecular target: T8, ULBP1-Fc (R&D Systems) (human, UniProt Q9BZM6 26-216); assay: as above
T8 construct: Bought; also called Ligand-Fc fusion; not shown: Fc of the bought fusion; not described
T8 sequence (looked up): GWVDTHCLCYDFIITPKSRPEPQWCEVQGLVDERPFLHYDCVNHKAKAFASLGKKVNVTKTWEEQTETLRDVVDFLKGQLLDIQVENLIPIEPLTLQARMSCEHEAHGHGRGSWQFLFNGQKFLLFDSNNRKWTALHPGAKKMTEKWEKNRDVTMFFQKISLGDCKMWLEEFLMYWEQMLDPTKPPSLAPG

[10] = molecular target: T9, His-tagged monomeric ULBP2 R81W (human, UniProt Q9BZM5 29-212); assay: Octet BLI; Fc-iNKG2D.YA captured on AHC tips, dilution series of His-tagged monomeric ligand
T9 construct: range 29-212; Construct limits are stated only for wild-type ULBP2-His; position 81 counts on the mature protein, not on the UniProt entry
T9 sequence: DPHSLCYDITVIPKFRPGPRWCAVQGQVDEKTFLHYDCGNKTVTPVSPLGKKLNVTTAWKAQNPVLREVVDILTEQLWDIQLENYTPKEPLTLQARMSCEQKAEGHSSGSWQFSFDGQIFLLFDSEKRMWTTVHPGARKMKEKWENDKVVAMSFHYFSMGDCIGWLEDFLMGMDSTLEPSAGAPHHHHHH
From the text: YA. […] YA were captured with anti-human IgG Fc capture (AHC) biosensor tips then associated with a dilution series of ligand. Data are from single experiments.

[11] = molecular target: T10, A1-A2 domain of human ULBP3 with C-terminal 6x-His tag (monomer) (human, UniProt Q9BZM4 30-212); assay: as above
T10 construct: range 30-212; also called MIC-His ligand
T10 sequence: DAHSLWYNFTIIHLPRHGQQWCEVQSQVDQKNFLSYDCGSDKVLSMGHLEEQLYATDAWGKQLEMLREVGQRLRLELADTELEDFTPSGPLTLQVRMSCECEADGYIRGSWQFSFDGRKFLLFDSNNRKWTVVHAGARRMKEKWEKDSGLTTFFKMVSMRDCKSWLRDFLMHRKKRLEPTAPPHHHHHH
From the text: (§2) Note that all axes are to the same scale (Binding-0 nm, 0.4 nm. 0.8 nm, 1.2 nm (y-axis); Time-0 s, 50 s, 100 s, 150 s, 200 s, 250 s, 300 s, 350 s (x-axis). Data is representative of a single experiment.

[12] = molecular target: T11, A1-A2 domain of human MICA*001 with C-terminal 6x-His tag (monomer) (human, UniProt Q29983 24-205); assay: as above
T11 construct: range 24-205; also called MIC-His ligand
T11 sequence: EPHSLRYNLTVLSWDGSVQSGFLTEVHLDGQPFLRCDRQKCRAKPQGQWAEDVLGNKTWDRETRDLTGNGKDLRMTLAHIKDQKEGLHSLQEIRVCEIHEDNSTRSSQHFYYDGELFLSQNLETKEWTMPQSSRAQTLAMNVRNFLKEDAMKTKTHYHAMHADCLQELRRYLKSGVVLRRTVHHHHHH
From the text: as §2

[13] = molecular target: T12, A1-A2 domain of human MICB with C-terminal 6x-His tag (monomer) (human, UniProt Q29980 24-205); assay: as above
T12 construct: range 24-205; also called MIC-His ligand
T12 sequence: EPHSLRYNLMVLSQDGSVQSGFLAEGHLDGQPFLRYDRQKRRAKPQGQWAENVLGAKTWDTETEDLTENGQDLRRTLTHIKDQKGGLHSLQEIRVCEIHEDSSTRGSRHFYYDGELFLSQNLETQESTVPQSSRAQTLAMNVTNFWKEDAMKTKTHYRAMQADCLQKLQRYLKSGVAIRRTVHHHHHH
From the text: as §2

[14] = molecular target: T2, Fc-wtNKG2D (wild-type NKG2D ectodomain …); assay: Octet BLI; Fc-wtNKG2D captured on AHC tips, two-fold dilution series of MicAbody from 50 nM
From the text: as §1

[15] = molecular target: B2; assay: Octet BLI; Fc-iNKG2D.YA captured on AHC tips, two-fold dilution series of MicAbody from 50 nM
From the text: as §1

binding result [1]: no binding (tested: about 300 nM)
binding result [2]: no binding (tested: 50 nM (legend))
binding result [3]: no binding (tested: 50 nM (legend))
B1: Rituximab (antibody, V domains shown)
VH: QVQLQQPGAELVKPGASVKMSCKASGYTFTSYNMHWVKQTPGRGLEWIGAIYPGNGDTSYNQKFKGKATLTADKSSSTAYMQLSSLTSEDSAVYYCARSTYYGGDWYFNVWGAGTTVTVSA
VL: QIVLSQSPAILSASPGEKVTMTCRASSSVSYIHWFQQKPGSSPKPWIYATSNLASGVPVRFSGSGSGTSYSLTISRVEAEDAATYYCQQWTSNPPTFGGGTKLEIKR
notes: also called Rituximab (ADCC-); Rituxumab (ADCC); copies: 2 + 2

Binder: B2
binding result [4]: no binding (tested: 2000 nM)
binding result [5]: no binding (tested: 2000 nM)
binding result [6]: no binding (tested: 2000 nM)
binding result [7]: no binding (tested: 2000 nM)
binding result [8]: no binding (tested: 2000 nM)
binding result [9]: no binding (tested: 2000 nM)
Kd [10]: 3.6 µM
binding result [11]: no binding (tested: 1.2 uM)
binding result [12]: no binding (tested: 1.2 uM)
binding result [13]: no binding (tested: 0.3 uM)

binding result [14]: no binding (tested: 50 nM (legend))
Kd [15]: 23 pM
B3: Rituximab.HC-U2S3 MicAbody (U2S3 A1-A2 domain fused to the C-terminus of the rituximab heavy chain) (bispecific antibody, IgG1)
heavy (part 1 of 2): QVQLQQPGAELVKPGASVKMSCKASGYTFTSYNMHWVKQTPGRGLEWIGAIYPGNGDTSYNQKFKGKATLTADKSSSTAYMQLSSLTSEDSAVYYCARSTYYGGDWYFNVWGAGTTVTVSAA
heavy (part 2 of 2): GGGSEPHSLSYDITVIPKFRPGPRWCAVQGQVDEKTFLHYDCGQKTVTPVSPLGKKLQVTTAWKAQNPVLREVVDILTEQLWDIQLENYTPKEPLTLQARMSCEQKAEGHSSGSWQFSFDGQIFLLFDSEKRMWTTVHPGARKMKEKWENDKVVATKLYLWSMGDCIGWLEDFLMGMDSTLEPS
light: QIVLSQSPAILSASPGEKVTMTCRASSSVSYIHWFQQKPGSSPKPWIYATSNLASGVPVRFSGSGSGTSYSLTISRVEAEDAATYYCQQWTSNPPTFGGGTKLEIK
notes: IgG1 kappa, D265A/N297A; also called HC-fused MicAbody; Rit.HCd.S3; not shown: human IgG1 heavy-chain constant region, ADCC-deficient; human kappa light-chain constant region
